{"source": "paper PMC7772773", "about": "“HTR6 and SSTR3 ciliary targeting relies on both IC3 loops and C-terminal tails” (Life Science Alliance, 2020)", "key": {"[1]": {"biological_target": "T1, CD8α (aa 1–206)-(SSTR3-CT)-BioID2-HA ( | mouse, UniProt P01732 22-206; P30935 326-428)", "T1 construct": "signal peptide in the construct; CD8α, extracellular and transmembrane regions, aa 1–206; somatostatin receptor 3 (SSTR3), mouse, C-terminal tail (SSTR3-CT, aa 326–428); source: HEK293T, cotransfected, in cells; not shown: BioID2, C-terminal, kept; HA, C-terminal, kept", "T1 sequence (P01732 22-206, tags or fused parts left off)": "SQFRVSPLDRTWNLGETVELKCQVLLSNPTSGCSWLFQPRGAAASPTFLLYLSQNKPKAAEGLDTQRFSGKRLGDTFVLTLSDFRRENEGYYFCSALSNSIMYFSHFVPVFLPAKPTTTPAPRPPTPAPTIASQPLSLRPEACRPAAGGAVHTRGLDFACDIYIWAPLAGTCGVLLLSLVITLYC", "assay": "proximity labelling; BioID2 proximity biotinylation in HEK293T cells cotransfected with EGFP-TEV-Stag-TULP3 (or S-tagged TULP3-NTD or -CTD) and CD8α(1–206)-(IC3 or CT of a GPCR)-BioID2-HA; 50 μM biotin for the last 16 h; TULP3 purified from lysate by tandem purification (GFP-Trap, TEV digestion, S-protein agarose); its biotinylation detected with NeutrAvidin-HRP, relative to total TULP3 and normalised to the β2AR …", "details": "partners not purified"}, "[2]": {"biological_target": "T2, CD8α (aa 1–206)-(HTR6-CT)-BioID2-HA ( | mouse, UniProt P01732 22-206; Q9R1C8 326-440)", "T2 construct": "signal peptide in the construct; CD8α, extracellular and transmembrane regions, aa 1–206; serotonin receptor 6 (HTR6), mouse, C-terminal tail (HTR6-CT, aa 326–440); also called HTR6-CT(WT); wild-type HTR6-CT; source: HEK293T, cotransfected, in cells; not shown: BioID2, C-terminal, kept; HA, C-terminal, kept", "T2 sequence (P01732 22-206, tags or fused parts left off)": "as above", "assay": "proximity labelling; BioID2 proximity biotinylation in HEK293T cells cotransfected with EGFP-TEV-Stag-TULP3 (or S-tagged TULP3-NTD or -CTD) and CD8α(1–206)-(IC3 or CT of a GPCR)-BioID2-HA; 50 μM biotin for the last 16 h; TULP3 purified from lysate by tandem purification (GFP-Trap, TEV digestion, S-protein agarose); its biotinylation detected with NeutrAvidin-HRP, relative to total TULP3 and normalised to the β2AR …", "details": "partners not purified"}}}
{"binder": "EGFP-TEV-Stag-TULP3 (natural protein, UniProt O75386 1-442, looked up, TULP3, ciliary trafficking adapter; the printed limit of its C-terminal domain (aa 184–442) points to a protein of 442 aa; A TEV site lies between EGFP and the S-tag; EGFP is cut off only after the first immunoprecipitation, that is after the labelling in cells; also called S-tagged TULP3; not shown: EGFP, N-terminal, kept; S-tag, N-terminal, kept) MEASRCRLSPSGDSVFHEEMMKMRQAKLDYQRLLLEKRQRKKRLEPFMVQPNPEARLRRAKPRASDEQTPLVNCHTPHSNVILHGIDGPAAVLKPDEVHAPSVSSSVVEEDAENTVDTASKPGLQERLQKHDISESVNFDEETDGISQSACLERPNSASSQNSTDTGTSGSATAAQPADNLLGDIDDLEDFVYSPAPQGVTVRCRIIRDKRGMDRGLFPTYYMYLEKEENQKIFLLAARKRKKSKTANYLISIDPVDLSREGESYVGKLRSNLMGTKFTVYDRGICPMKGRGLVGAAHTRQELAAISYETNVLGFKGPRKMSVIIPGMTLNHKQIPYQPQNNHDSLLSRWQNRTMENLVELHNKAPVWNSDTQSYVLNFRGRVTQASVKNFQIVHKNDPDYIVMQFGRVADDVFTLDYNYPLCAVQAFGIGLSSFDSKLACE", "values": [{"measurement": "fold biotinylated TULP3 over β2AR-CT control", "setting": "[1]", "result": 20, "unit": "fold"}, {"measurement": "fold biotinylated TULP3 over β2AR-CT control", "setting": "[2]", "result": 4, "unit": "fold"}]}
